Test results as given in the RNAGym collection of RNA variant scans (doi:10.1073/pnas.2313332121).

B1: TPR t1 (parent)
chain: GACCAAUCUGCCCUCAGAGCUCGAGAACAUCUUCGGAUGCAGAGGAGGCAGGCUUCGGUGGCGCGAUAGCGCCAACGUCCUCAACCUCCAAUGCAUCCCACCACAUGAUGAUGCCUGAAGAGCCUUGGUUUUUUG

Variants of: B1
Test: polymerase ribozyme fitness, log enrichment relative to wild type (log ratio); higher = more active; in vitro selection for triplet polymerase activity
Method in brief: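 Fitness measures genotype enrichment against wild-type enrichment on a logarithmic scale, with inverse-variance-weighted averaging of replicates. The logarithm is base 2, and genotypes were kept only with ≥10 input reads and ≥1 read per output in Illumina sequencing. The sequenced libraries came from one triplicate in vitro selection round, including frozen incubation at −7 °C, of PCR-built, transcribed mutant libraries of each subunit of a heterodimeric triplet polymerase ribozyme.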

Variant	polymerase ribozyme fitness (log ratio)
C13A A16U G60U C88U A121G	1.33
C13U C40U C124U G135C	0.605
C13G G39U C115U	-2.63
C13A G63U	-3.09
C13A G63C	-2.37
C13U U30C C80A C89U C124G	-5.32
C13U C15U U54G U81A U96A	-3.41
C13U C53G C56A	-0.438
C13G U32C A46U C70A C104U	-3.75
C13U G51U G61A C88U U106A	-2.6
C13U U112A C123A G128C	-1.12
C13U G45C C70U C124A	-0.034
C13A G52A U59C G113A	-3.69
U14A A29G U55C C72U C86U	-4.41
C13U A27U G42U C64G A100C G120C C123G	-7.95
C13A C20U G61U C72U	-3.24
C13G G60C	-1.52
C13A A18C	-4.69
C13A G48A U109A G120C	-5.29
C13A U96A	-2.64
C13G A37G G71U C102G A103U U112A G117U G127C U130G	-6.56
C13A C73A G120A C123A	-0.951
C13A C114U	-2.86
C13U G47C U78C U109G	-4.45

Variant	polymerase ribozyme fitness (log ratio)
C13U C70U U109A U132A	-6.56
C13G G63C C85G U112A G120C	-1.45
C13U C22G C49U G71C C102U G122A	-5.74
C13U A18U C31U C64G A103C G110A	-5.64
C13G G42U C49U G61U U130A	-4.93
C12U G128A	-1.59
C13U G71A	-0.0397
U14A U54G A84U C98A A103U G117A C123G G128A	-6.1
C12U G117C	-1.68
C12U G117U	0.316
C13G G52U G60A C104U C115G A121C	-3.16
C13U A37U	0.687
C13A U92C	-3.57
C13U C89G	-1.01
C13A G122A	-2.07
C13G G71U	-1.79
C13A G71A A74C G128A	-5.69
C13A G57A G127C	-3.7
C13G C62U	-1.43
C13A U21A A37C G93A	-2.9
C13G G71C A91U	-3.97
C13G G36C C40U	-2.55
C13A C115U	-3.06
C13G C56G G69C C89A G117U	-6.43

Variant	polymerase ribozyme fitness (log ratio)
C13A C70G C98U G120A	-2.39
C13U G61C G93U U132C	-2.93
U14A G71C G128A	-3.99
C13U A16C G48C U59G G60U A100C A121C	-0.128
C13U A18U U81G G117U	-6.34
C13A G61U U92C C114A	-3.9
C13U G60A C82A U131G	-0.416
C13U A83G	0.0266
C13A A18U C53U	-3.95
U14A C70G	-3.97
C13G G48C G63U A105C	-5.9
C13U G45U U55C C70U G93U	-3.96
C13G U59A C62G	-3.87
C13G A43U C76U C123G	-0.345
C13G G35C C64U A90G G93A C97A C124A	-5.83
C13A A16U G120C	-0.322
C13A A43C G93C	-5.21
C13U G19A G77C U81C	-3.54
C13G C62U U81A C94U C101U	-3.12
C13A C85U A100C	-3.76
C13U C56U	0.718
U14A A24G G61C C89G A91C C101A U112A G122U U125A	-6.22
C13A C40A G93A A118U U129C	-3.28
C13A G77U U106A C114A	-4.55

Variant	polymerase ribozyme fitness (log ratio)
C13G G51C G61C C104U G120C	-6.03
C13G C22U G63U C79U G122A	-7.09
C13G G36A C40G	-4.55
C13A G35A C124G	-3.52
C13U A29C G52U C104U G120A U131A	-2.05
C13G G61A C94G U116A	-6.69
U14A G63A G93A	-4.67
C13G C72A U78G	-2.9
C13A C49U C53G U112C	-2.14
U14A G61A G117A	-4.06
C13G G36U G60A G110U	-4.24
C13A A66U C101A	-4.3
C13U C56U A90G	0.402
C13U G17A	-1.44
C13G	-1.53
C13U	0.225
C13A	-1.61
C13A A41G G69A	-5.37
C13G U59C	0.688
C13U C34U	-4.26
C13U C28G A43G C62U G110C	-1.17
C13A U112G	-1.5
C12U U78A A108U G120C	-5.26
C13A C15U G44A C49U C73U C89A	-4.76

Variant	polymerase ribozyme fitness (log ratio)
C13U U129A	-0.61
C13A C22U	-4.99
C13A C22A	-5.41
C13A C15G A37U A103C	-6.73
C13A G45U G69U	-1.92
C13G C20U G48A	-3.29
C13A G44A G127C U131C	-2.25
C13U C28G C101A C104A	-5.64
C13U A37C C53G G128C	-1.48
C13U C72U C94G	-1.35
C13G C34U	-6.06
C13A A43U G60C C88A	-4.2
C12U U96G G128C	-2.88
C13G G52U	-3.2
C13G C53G U59C U133G	-1.68
U14A A84C G122A	-1.57
C13U G17A A43C U59C U132C	-4.55
C13G U21A G52C A91C G120C	-3.21
C13U C53A U54C G120C	1.15
C13A C20U G61U	-2.05
U14A G61C	-3.93
C13A G69U C72A G113A	-1.88
C13A A50G G71A	-2.13
C13A U32C U109G G120C	-5.75

Variant	polymerase ribozyme fitness (log ratio)
C13G C62G A66U G113U	-7.31
C13G A41U C56U A121G	0.91
C13G A66U C79U C102A	-4.83
C13U G122A	0.447
C13G A41U C72G C101U	-3.53
C12U U109A	-3.34
C13U G39C G63U U125G U133A	-2.15
C13U U78C C115U	1.27
C13U C73U C124U G127A	0.275
C13A U81A C88U G110A A121C	-2.71
C13A G47C	-3.14
U14A A46C C70A U112A A119G G122C	-2.7
U14A C34G G71C A91G C124A	-6.51
C13A C53A	-0.605
C13U G45A G51U C115A	-3.13
C13G A74C	-2.12
C13A C97U	-2.68
C13A C97A	-5.11
C13U G61A	-0.508
C13U U55G C72U	-0.221
U14A C20G C40U G45A G63C U96G U112A G117A	-6.83
C13U A27G	-2.05
C13A G71A	-0.843
C13U U32G U87C	-7.09

Variant	polymerase ribozyme fitness (log ratio)
C13G C82U U131A	-2.89
C13U C28G G120C	-1.05
C13G C56A G63A	-3.78
C13A A43C A83G C102A G110A U129C	-6.67
C13U G52U G110U U133C	-1.33
C13U C34G G47U C72G U112A	-5.6
C13A A46G G63C	-2.95
C13A C72U A83C A84G U112C	-1.46
C13G G45A G48A G61C	-3.73
C13U C56A U96G	-0.637
C13U G71U A111G U126G	-0.972
C13U A18U	-0.945
C13A G61C A90C	-5.48
U14A C49G	-2.67
C13U C28G A43G G110C	-0.443
C13G G117A	-1.95
U14A C72U C89A	-3.16
U14A U21A U30G G58C U112C A118C	-4.31
C13U C28A G110C G120A	-1.9
C12U U54A A91C C115U	-0.811
C13G G17A C115U	-1.42
C13A G48A C114U U129A	-5.75
C13U A37C U55A	-0.3
